± gives the standard deviation of the averaged measurements.
Experiment: total protein half-life in vivo (active degradation + dilution); higher = more stable protein
[1] = E. coli NCM3722 delta-clpP delta-lon delta-hslV, growth: N-lim chemostat, doubling time 6 h
[2] = E. coli NCM3722 delta-hslV, growth: N-lim chemostat, doubling time 6 h
[3] = E. coli NCM3722 delta-smpB, growth: N-lim chemostat, doubling time 6 h
[4] = wild type E. coli NCM3722, growth: C-lim chemostat, doubling time 3 h
[5] = wild type E. coli NCM3722, growth: C-lim chemostat, doubling time 6 h
[6] = wild type E. coli NCM3722, growth: C-lim chemostat, doubling time 12 h
[7] = wild type E. coli NCM3722, growth: N-lim chemostat, doubling time 12 h
[8] = wild type E. coli NCM3722, growth: P-lim chemostat, doubling time 6 h
[9] = wild type E. coli NCM3722, growth: P-lim chemostat, doubling time 12 h
[10] = E. coli NCM3722 delta-clpP, growth: N-lim chemostat, doubling time 6 h
[11] = E. coli NCM3722 delta-lon, growth: N-lim chemostat, doubling time 6 h
[12] = wild type E. coli NCM3722, growth: N-lim chemostat, doubling time 6 h

Sequence	total protein half-life in vivo [1] [h]	total protein half-life in vivo [2] [h]	total protein half-life in vivo [3] [h]	total protein half-life in vivo [4] [h]	total protein half-life in vivo [5] [h]	total protein half-life in vivo [6] [h]	total protein half-life in vivo [7] [h]	total protein half-life in vivo [8] [h]	total protein half-life in vivo [9] [h]	total protein half-life in vivo [10] [h]	total protein half-life in vivo [11] [h]	total protein half-life in vivo [12] [h]
MDFSLTEEQELLLASIRELITTNFPEEYFRTCDQNGTYPREFMRALADNGISMLGVPEEFGGIPADYVTQMLALMEVSKCGAPAFLITNGQCIHSMRRFGSAEQLRKTAESTLETGDPAYALALTEPGAGSDNNSATTTYTRKNGKVYINGQKTFITGAKEYPYMLVLARDPQPKDPKKAFTLWWVDSSKPGIKINPLHKIGWHMLSTCEVYLDNVEVEESDMVGEEGMGFLNVMYNFEMERLINAARSTGFAECAFEDAARYANQRIAFGKPIGHNQMIQEKLALMAIKIDNMRNMVLKVAWQADQHQSLRTSAALAKLYCARTAMEVIDDAIQIMGGLGYTDEARVSRFWRDVRCERIGGGTDEIMIYVAGRQILKDYQNK [P0A9U8]	6.36 ± 0.59	1.41	1.03	2.23	> 8	2.25	2.165 ± 0.02	0.772	2.42	–	–	–
MDHAIYTAMGAASQTLNQQAVTASNLANASTPGFRAQLNALRAVPVEGLSLPTRTLVTASTPGADMTPGKMDYTSRPLDVALQQDGWLAVQTADGSEGYTRNGSIQVDPTGQLTIQGHPVIGEAGPIAVPEGAEITIAADGTISALNPGDPANTVAPVGRLKLVKATGSEVQRGDDGIFRLSAETQATRGPVLQADPTLRVMSGVLEGSNVNAVAAMSDMIASARRFEMQMKVISSVDDNAGRANQLLSMS	–	–	–	0.504 ± 0.13	–	3.33 ± 1.4	–	–	–	–	–	–
MDHLPMPKFGPLAGLRVVFSGIEIAGPFAGQMFAEWGAEVIWIENVAWADTIRVQPNYPQLSRRNLHALSLNIFKDEGREAFLKLMETTDIFIEASKGPAFARRGITDEVLWQHNPKLVIAHLSGFGQYGTEEYTNLPAYNTIAQAFSGYLIQNGDVDQPMPAFPYTADYFSGLTATTAALAALHKVRETGKGESIDIAMYEVMLRMGQYFMMDYFNGGEMCPRMSKGKDPYYAGCGLYKCADGYIVMELVGITQIEECFKDIGLAHLLGTPEIPEGTQLIHRIECPYGPLVEEKLDAWLATHTIAEVKERFAELNIACAKVLTVPELESNPQYVARESITQWQTMDGRTCKGPNIMPKFKNNPGQIWRGMPSHGMDTAAILKNIGYSENDIQELVSKGLAKVED	6.21 ± 0.21	4.77 ± 0.81	4.726 ± 0.00071	> 4	–	13	8.76	6.27	–	4.41	4.71	–
MDHRLLEIIACPVCNGKLWYNQEKQELICKLDNLAFPLRDGIPVLLETEARVLTADESKS [P0AAZ7]	> 8	–	4.65 ± 1.2	1.64 ± 0.1	4.73 ± 0.12	8.88 ± 1.5	6.3 ± 0.69	3.69 ± 0.26	7.87 ± 0.7	5.82 ± 0.15	4.19 ± 0.043	3.05 ± 0.11
MDHSLNSLNNFDFLARSFARMHAEGRPVDILAVTGNMDEEHRTWFCARYAWYCQQMMQARELELEH	2.86	–	–	–	–	–	–	–	–	–	–	–
MDIFISKKMRNFILLAQTNNIARAAEKIHMTASPFGKSIAALEEQIGYTLFTRKDNNISLNKAGQELYQKLFPVYQRLSAIDNEIHNSGRRSREIVIGIDNTYPTIIFDQLISLGDKYEGVTAQPVEFSENGVIDNLFDRQLDFIISPQHVSARVQELENLTISELPPLRLGFLVSRRYEERQEQELLQELPWLQMRFQNRANFEAMIDANMRPCGINPTIIYRPYSFMAKISAVERGHFLTVIPHFAWRLVNPATLKYFDAPHRPMYMQEYLYSIRNHRYTATMLQHIAEDRDGTSH	5.12	–	–	–	–	–	9.66	–	–	–	–	–
MDIVFIEQLSVITTIGVYDWEQTIEQKLVFDIEMAWDNRKAAKSDDVADCLSYADIAETVVSHVEGARFALVERVAEEVAELLLARFNSPWVRIKLSKPGAVARAANVGVIIERGNNLKENN [P0AC16]	5.71 ± 0.35	5.4 ± 0.43	–	3.26 ± 0.37	6.02 ± 0.37	11.8 ± 1.3	10.7 ± 2.2	6.4 ± 0.65	12.39 ± 0.043	5.86	5.47 ± 0.74	5.39 ± 0.56
MDKIHAMQLFIKVAELESFSRAADFFALPKGSVSRQIQALEHQLGTQLLQRTTRRVKLTPEGMTYYQRAKDVLSNLSELDGLFQQDATSISGKLRIDIPPGIAKSLLLPRLSEFLYLHPGIELELSSHDRPVDILHDGFDCVIRTGALPEDGVIARPLGKLTMVNCASPHYLTRFGYPQSPDDLTSHAIVRYTPHLGVHPLGFEVASVNGVQWFKSGGMLTVNSSENYLTAGLAGLGIIQIPRIAVREALRAGRLIEVLPGYRAEPLSLSLVYPQRRELSRRVNLFMQWLAGVMKEYLD	6.09 ± 0.38	2.08	2.76	2.32	3.43 ± 0.34	7.24 ± 3.2	–	–	–	4.8 ± 0.34	3.35 ± 0.51	–
MDKVLDSALLSSANKRKGILAIGAHPDDIELGCGASLARLAQKGIYIAAVVMTTGNSGTDGIIDRHEESRNALKILGCHQTIHLNFADTRAHLQLNDMISALEDIIKNQIPSDVEIMRVYTMHDADRHQDHLAVYQASMVACRTIPQILGYETPSTWLSFMPQVFESVKEEYFTVKLAALKKHKS	5.73	–	–	–	–	–	–	–	–	–	–	–
MDLASLRAQQIELASSVIREDRLDKDPPDLIAGADVGFEQGGEVTRAAMVLLKYPSLELVEYKVARIATTMPYIPGFLSFREYPALLAAWEMLSQKPDLVFVDGHGISHPRRLGVASHFGLLVDVPTIGVAKKRLCGKFEPLSSEPGALAPLMDKGEQLAWVWRSKARCNPLFIATGHRVSVDSALAWVQRCMKGYRLPEPTRWADAVASERPAFVRYTANQP	–	4.58 ± 0.4	4.62 ± 0.2	3.05 ± 0.12	6.09 ± 0.24	11.3 ± 0.85	8.84 ± 0.67	5.3 ± 0.39	9.801 ± 0.042	5.52 ± 0.25	4.952 ± 0.015	5.08 ± 0.14
MDLIYFLIDFILHIDVHLAELVAEYGVWVYAILFLILFCETGLVVTPFLPGDSLLFVAGALASLETNDLNVHMMVVLMLIAAIVGDAVNYTIGRLFGEKLFSNPNSKIFRRSYLDKTHQFYEKHGGKTIILARFVPIVRTFAPFVAGMGHMSYRHFAAYNVIGALLWVLLFTYAGYFFGTIPMVQDNLKLLIVGIIVVSILPGVIEIIRHKRAAARAAK [P0ABP6]	3.68 ± 0.076	3.74	4.71 ± 0.57	2.65 ± 0.21	5.03 ± 0.88	9.21 ± 3.2	6.2 ± 0.26	–	7.57 ± 1.5	3.87	3.148 ± 0.016	3.7 ± 0.13
MDLQHWQAQFENWLKNHHQHQDAAHDVCHFRRVWATAQKLAADDDVDMLVILTACYFHDIVSLAKNHPQRQRSSILAAEETRRLLREEFEQFPAEKIEAVCHAIAAHSFSAQIAPLTTEAKIVQDADRLEALGAIGLARVFAVSGALGVALFDGEDPFAQHRPLDDKRYALDHFQTKLLKLPQTMQTARGKQLAQHNAHFLVEFMAKLSAELAGENEGVDHKVIDAFSSAG	4.36 ± 0.052	2.72	2.92 ± 0.03	2.09 ± 0.078	–	–	3.19	2.83 ± 0.28	4.67 ± 0.13	3.48 ± 0.37	–	2.29
MDLRRFITLKTVVEEGSFLRASQKLCCTQSTVTFHIQQLEQEFSVQLFEKIGRRMCLTREGKKLLPHIYELTRVMDTLREAAKKESDPDGELRVVSGETLLSYRMPQVLQRFRQRAPKVRLSLQSLNCYVIRDALLNDEADVGVFYRVGNDDALNRRELGEQSLVLVASPQIADVDFTEPGRHNACSFIINEPQCVFRQIFESTLRQRRITVENTIELISIESIKRCVAANIGVSYLPRFAVAKELECGELIELPFGEQSQTITAMCAHHAGKAVSPAMHTFIQCVEESFVAG	5.31 ± 0.83	4.13	3.41	–	4.86	8.259 ± 0.077	6.51	5.85	7.91	> 8	4.83	4.37 ± 0.49
MDLSLLKALSEADAIASSEQEVRQILLEEADRLQKEVRFDGLGSVLIRLNESTGPKVMICAHMDEVGFMVRSISREGAIDVLPVGNVRMAARQLQPVRITTREECKIPGLLDGDRQGNDVSAMRVDIGARSYDEVMQAGIRPGDRVTFDTTFQVLPHQRVMGKAFDDRLGCYLLVTLLRELHDAELPAEVWLVASSSEEVGLRGGQTATRAVSPDVAIVLDTACWAKNFDYGAANHRQIGNGPMLVLSDKSLIAPPKLTAWVETVAAEIGVPLQADMFSNGGTDGGAVHLTGTGVPTVVMGPATRHGHCAASIADCRDILQMQQLLSALIQRLTRETVVQLTDFR	5.79	–	–	2.18	–	–	–	–	–	–	–	–
MDNDKIDQHSDEIEVESEEKERGKKIEIDEDRLPSRAMAIHEHIRQDGEKELERDAMALLWSAIAAGLSMGASLLAKGIFQVELEGVPGSFLLENLGYTFGFIIVIMARQQLFTENTVTAVLPVMQKPTMSNVGLLIRLWGVVLLGNILGTGIAAWAFEYMPIFNEETRDAFVKIGMDVMKNTPSEMFANAIISGWLIATMVWMFPAAGAAKIVVIILMTWLIALGDTTHIVVGSVEILYLVFNGTLHWSDFIWPFALPTLAGNICGGTFIFALMSHAQIRNDMSNKRKAEARQKAERAENIKKNYKNPA	6.19 ± 0.79	5.3	6.11 ± 1.4	3.47	5.51 ± 0.23	11.5 ± 1.9	13.5 ± 1.3	6.29 ± 0.45	12.6 ± 0.066	5.38 ± 0.26	5.46	5.75 ± 1.1
MDNRGEFLNNVAQALGRPLRLEPQAEDAPLNNYANERLTQLNQQQRCDAFIQFASDVMLTRCELTSEAKAAEAAIRLCKELGDQSVVISGDTRLEELGISERLQQECNAVVWDPAKGAENISQAEQAKVGVVYAEYGLTESGGVVLFSAAERGRSLSLLPEYSLFILRKSTILPRVAQLAEKLHQKAQAGERMPSCINIISGPSSTADIELIKVVGVHGPVKAVYLIIEDC	4.84 ± 0.23	1.64	1.78 ± 0.043	2.33 ± 0.14	3.75 ± 0.5	5.23 ± 0.45	2.49	2.13	–	1.46	2.67	–
MDQFECINVADAHQKLQEKEAVLVDIRDPQSFAMGHAVQAFHLTNDTLGAFMRDNDFDTPVMVMCYHGNSSKGAAQYLLQQGYDVVYSIDGGFEAWQRQFPAEVAYGA [P0A6V5]	–	–	–	–	–	–	–	–	–	–	–	1.91
MDQVVIFKQIFDKVRNDLNYQWFYSELKRHNVSHYIYYLATENVHIVLKNDNTVLLKGLKNIVSVKFSKDRHLIETTSNKLKSREITFQEYRRNLAKAGVFRWVTNIHEQKRYYYTFDNSLLFTESIQKTTQILPR	–	–	–	–	4.33	–	–	–	5.25	–	–	–
MDSFPAIEIDKVKAWDFRLANINTSECLNVAYGVDANYLDGVGVSITSIVLNNRHINLDFYIIADVYNDGFFQKIAKLAEQNQLRITLYRINTDKLQCLPCTQVWSRAMYFRLFAFQLLGLTLDRLLYLDADVVCKGDISQLLHLGLNGAVAAVVKDVEPMQEKAVSRLSDPELLGQYFNSGVVYLDLKKWADAKLTEKALSILMSKDNVYKYPDQDVMNVLLKGMTLFLPREYNTIYTIKSELKDKTHQNYKKLITESTLLIHYTGATKPWHKWAIYPSVKYYKIALENSPWKDDSPRDAKSIIEFKKRYKHLLVQHHYISGIIAGVCYLCRKYYRK	5.91 ± 0.13	5.85 ± 1.1	5.17 ± 0.11	2.93 ± 0.14	5.19 ± 0.48	9.31 ± 1.8	10.3 ± 2.3	5.29 ± 0.38	9.86 ± 0.11	5.65 ± 0.22	4.71 ± 0.095	6.04 ± 1.2
MDTELLKTFLEVSRTRHFGRAAESLYLTQSAVSFRIRQLENQLGVNLFTRHRNNIRLTAAGEKLLPYAETLMSTWQAARKEVAHTSRHNEFSIGASASLWECMLNQWLGRLYQNQDAHTGLQFEARIAQRQSLVKQLHERQLDLLITTEAPKMDEFSSQLLGYFTLALYTSAPSKLKGDLNYLRLEWGPDFQQHEAGLIGADEVPILTTSSAELAQQQIAMLNGCTWLPVSWARKKGGLHTVVDSTTLSRPLYAIWLQNSDKNALIRDLLKINVLDEVY [P0A8R9]	5.38 ± 0.37	4.553 ± 0.02	4.1 ± 0.12	3.05 ± 0.072	5.676 ± 0.025	9.53 ± 0.73	7.65 ± 0.25	6.13 ± 0.24	11.7 ± 2	4.82 ± 0.081	–	4.72 ± 0.46

From the supplement of paper PMC11246515
